B1: TCN-527 (5086_C06) (antibody, V domains shown)
VH: QVQLQESGPGLVKPSETLSLNCAVSGGSISNYYWSWIRQPPGKGLEWIGYISYNGRPKYNPSLTSRVTISVDTSKDQFSLELRSVTAADTALYYCARETRFGELLSPYDAFEIWGQGTMVTVSS
VL: DIQMTQSPSSLSASVGDRVTMTCRASQNIRSYLNWYQQRPGTAPKLLIYAASTLHSGVPSRFSGGGSGTDFTLTINNLQPEDFASYYCQQSYDNPQTFGQGTKVEIK
B2: TCN-538 (3206_O17) (antibody, V domains shown)
VH: QITLKESGPTLVKPTQTLTLTCVFSGFSLSITGVRVGWIRQPPGKALEWLALISWDDEKHYSPSLQSRLTITKDTSKNQVVLTMTNLDPVDTATYYCARSTDRGHVLRYFGWMLPGDAFDVWGQGTMVTVSS
VL: DIVMTQSPDFLPVSLGERATINCKSSQRVLYSSNNKNYLAWYQLKPGQPPKLIIYWASTRESGVPDRFSGSGSGTEFTLTISSLQAEDVAVYYCQQYYSRPYTFGQGTKLEIK
B3: TCN-536 (5095_N01) (antibody, V domains shown)
VH: QVQLQQWGAGLLKPSETLSLTCAVYGGSFSVSGYYWSWIRQPPGRGLEWIGEISHGGSTNYNPSLKSRVTISVDTTKNQFSLRLSSVTAADTAVYYCARGTDPDTEVYCRVGNCAAFDYWGQGSLVTVSS
VL: EIILAQSPGTLSLSPGERATLSCRASQFVSTRSLAWYQQRPGQAPRLLIYGASSRATGIPDRFSGSGSGTDFTLTISRLEPEDFAVYYCQHYGYSPRYAFGQGSKVEIK
B4: TCN-534 (5249_B02) (antibody, V domains shown)
VH: QVQLVQSGAEVKKPGSSVKVSCRESGGTFNGYTITWVRQAPGQGLEWMGGIIPMMGTVNYAQKLQGRVTITTDYFTKTAYMDLNNLRSEDTAMYYCVKIRYTGQQLLWGQGTLVTVSS
VL: DIQMTQSPSTLSASIGDRVTITCRASQSIASWLAWYQQKPGKAPKLLIYEAVNLESGVPSRFSGSGSGTDFTLTISSLQPDDFATYFCQHYGTISQTFGGGTKVEIK
B5: TCN-537 (3194_D21) (antibody, V domains shown)
VH: QVQLQQWGSGLLKPSETLSLTCAVYGGSFRDDYWTWIRQPPGKGLEWIGEINHSGRTNYNPSLKSRVTISVDTSLKQFSLKVISVTAADTAVYYCARGTSHVSRYFDWLPPTNWFDPWGQGTQVTVSS
VL: DIVLTQSPGTLSLSPGERATLSCRASQSVSSSYLAWYQQKPGQAPRLVMYGAATRATGIPDRFSGSGSGPDFTLTISRLEPEDFAMYYCQQYGNSPITFGQGTRLEIK
B6: TCN-544 (5082_A19) (antibody, V domains shown)
VH: QVQLQESGPGLVKPSETLSLTCTVSRGSIGHYFWSWIRQPPGKGLEWIGYISYSGSTKYNPSLRSRVTISVDTSKNQFSLNLNSVTATDTALYYCAREDYDILTGAGPGMEVWGQGTTVTVSS
VL: QSMLTQPPSASGTPGQRVTISCSGSSSNIGSNTVNWFKHLPGTAPKLLIYRNDLRPSGVPDRFSGSKSGTSASLAISGLQSEDEADYYCATWDDSLNGFYVFGTGTKVTVL
B7: TCN-554 (5277_M05) (antibody, V domains shown)
VH: QVQLVQSGADLKKPGASVKVSCKASGYTFTDYYIHWVRQAPGQGLEWMGWINPESGDTKYAQKFQGRVTMTRDTSITTAYMELGRLRSDDTAVYYCARDVSTTWSWFAPWGQGTLVTVSS
VL: DIVMTQSPDSLAVSLGERATINCRSSQSIFHNSNNENYLAWYQQKPGQPPKLLIYWASTRESGVPDRFSGSGSGTDFTLTISSLQAEDVAVYFCQQYYNAPLTFGGGTKVEIK
B8: TCN-551 (5243_D01) (antibody, V domains shown)
VH: EVQLVQSGSEVKKPGESLKISCKGSGYSFSNYWIGWVRHMPGKGLEWMGIIYPGDSDTRYSPSFQGQVTMSADKSSSTVYLQWSSLKASDTAIYYCARRGGHSFGYGSGGDTHSEFDSWGQGTLVTVSS
VL: QSVLTQSPSVSAAPGQKVTISCSGSDSNIGDYFVCWYQHLPGKPPQLLIYENNKRPSGIPDRFSGSKSGTSATLGITGIQTGDEADYYCATWDGSLSAWVFGGGTKLTVL
B9: TCN-522 (3212_I12) (antibody, V domains shown)
VH: QVQLQQWGAGLLKPSETLSLTCTVSGGSLTDYSWNWIRQPPGKGLEWIGDTLHNGYTNYNPSLRGRVSISIDTSKNQVSLRLTSVTAADTALYYCARGSGGYGGFDYFGKLRTWDFWGQGTLVTVSS
VL: DIQLTQSPSSLSASVGDRVTITCRASQGIRNDLGWYQQKPGNAPKRLIFGASSLQSGVPSRFSGSGSGTEFTLTISSLQPEDFATYYCLQHNSYPYTFGQGTKLEIK
B10: TCN-539 (5056_A08) (antibody, V domains shown)
VH: QVQLVESGGGVVQPGRSLRLSCAASEITFITYAMHWVRQAPGKGLEWVALISDDGSNKFYADSVKGRFTISRDNSKNTLYLQMNSLRAEDTAAYYCAREGVYFDSGTYRGYFDYWGQETLVTVSS
VL: EIVLTQSPATLSLSPGERATLSCRASQSVSSYLAWYQQKPGQAPRLLIYDASNRATGIPARFSGSGSGTDFTLTISSLEPEDFAVYYCQQRSHWPPITFGQGTRLEIK
B11: TCN-540 (5060_F05) (antibody, V domains shown)
VH: QVQLVQSGGGVVQPGRSLRLSCAASGFTFSSYAMHWVRQAPGKGLEWVAIISYDGNDQYYTDSVKGRFTISRDSSKVYLQMHRLRPEDTAVYYCAKEFETSGYFHGSFDYWGQGILVTVSS
VL: QSALTQPASVSGSPGQSITISCTGTSSDVGGYNYVSWYQQHPGKAPKLLIYEVTNWPSGVSNRFSGSKSGNTASLTISGLQAEDEADYYCSSYAGSSTWVFGGGTRVTVL
B12: TCN-545 (5082_I15) (antibody, V domains shown)
VH: QVQLQQWGAGLLKPSETLSLSCAVFGGSFSDYYWTWIRQPPGKGLEWIGEIKHSGRTNYNPSLESRVTISVDTSKNQFSLKLSSVTAADTAIYYCARGTDPDTEGYCRSGSCSAFDFWGQGTLVTVSS
VL: EIVLTQSPGTLSLSPGERATLSCRASHFVNYRSLAWYQQTPGQVPRLLIYGASTRATGIPDRFSGSGSGTDFTLTISRLEPEDFAVYFCQQYGGSPRYTFGQGTRLEIK
B13: TCN-553 (5261_C18) (antibody, V domains shown)
VH: QVQVVQSGTEVKKPGSSVKVSCQTSGGRFMSYAITWVRQAPGQGLEWMGGIVPVFGTANYAQKFQGRVTITTDDSTRTAYMELSSLRSEDTAVYYCGFRYGSGYGFDSWGQGTLVTVSS
VL: EIVLTQSPGTLSLSPGERATLSCRASQSVSSSYLAWYQKKPGQAPRLLIYGASTRATGIPDRFTGSGSGTDFTLSISRLEPEDFAVYYCQHFGTSVFTFGGGTKVEIK
B14: TCN-552 (5249_I23) (antibody, V domains shown)
VH: QVQVVQSGAEVKKPGSSVRVSCQASGGTFMNYAIIWVRRAPGQGLEWMGGIIPVFPTPNYAQMFQGRVTISTDESRSTSFLELTNLRYEDTAVYYCARRIYHGGNSGFDFWGQGTLVTVSS
VL: EIVLTQSPATLSLSPGERATLSCRASQSVGNYLAWYQQKPGQAPRLLIYDSSNRAPGIPARFSGSGSGTDFTLTISSLAPEDFAVYYCQQRSKWPPMYSFGHGTKLEIK
B15: TCN-543 (5081_G23) (antibody, V domains shown)
VH: QVHLVQSGAEVRKPGDSVKVSCKTSGYTFSTYPVAWVRQVPGQGLEWMGWISTYNGNTNFAQNFQGRVTLTTDTTTNTAYMEVRSLKFDDTAVYYCARVEGSYRDFWNNQNRFDPWGQGTLVTVSS
VL: SYVLTQPPSVSVAPGQTARISCGGSNIGGKSVHWYQQKPGQAPVLVVYDDSGRPSGIPERFSGSNSGDTATLTISRVEAGDEADYFCQVWDNFGGVFGTGTKVTVL
B16: TCN-528 (5087_P17) (antibody, V domains shown)
VH: QVQLVQSGSEVKKPGASVKVSCKASGYTFTNYDINWIRQAPGQGLEWMGWINPNSGTTGSAQRFQGRVTITVDTSITTVYMELSSLRSDDTAIYYCARGRELLRLQHFLTDSQSERRDCFDPWGQGTLVTVSS
VL: DIQMTQSPSSLSASVGDRVTITCRANQDIGIYLNWYQQNPGKVPKLLLHGASSLQGGVPSRFSASGSGTDFTLTIHSLQPEDLATYYCQQSRRLPYTFGQGTRVELK
B17: TCN-550 (5096_F06) (antibody, V domains shown)
VH: QVQLQESGPGLVKPSETLSLTCTVSGASINSHYWSWIRQPPGKGLEWIGYVYYSGSTTYNPSLKSRVTLSVDTSKNQFSLNLSSVTAADTAFYYCARHPYDVLTGSGDWFDPWGQGTLVTVSS
VL: SYVLTQAPSVSVAPGQTARITCGGNAIGSKKVHWYQHKAGQAPVLVVYDDTDRPSGIPERFSGSNSWSTATLTINRVEAGDEADYYCQVWDFTIDHVVFGGGTKLTVL
B18: TCN-555 (5246_L16) (antibody, V domains shown)
VH: QVQLVQSGAEVKRPGSSVKVSCTASGGIFRKNAISWVRQAPGQGLEWMGGIIAVFNTANYAQKFQNRVKITADESGNTAYMELSSLTSDDTAVYYCASHPKYFYGSGSYPDFWGQGTLVTVSS
VL: QSALTQPRSVSGSPGQSITISCTGGSSDIGASNSVSWYQQHPGKAPKLVIFDVTERPSGVPHRFSGSKSGNTASLTVSGLQPDDEADYFCCAYGGKYLVVFGGGTKVTVL
B19: TCN-558 (5248_H10b) (antibody, V domains shown)
VH: QVQLVQSGSEVKKPGTSVKVSCTASGSVFTNYGISWVRQAPGQGLEWMGGIIPLFGAAKYAQKFQGRVTITADESTKTVYMELSRLTSKDTAIYFCAKAPRVYEYYFDQWGQGTPVTVSS
VL: EIVMTQFPATLSVSPGERVTLSCRASQSVSNNLAWYQQKPGQPPRLLIYDASTRATGVPAKFSGTGSGTEFTLSISSLQSEDFAVYYCQQYHNWPPSYSFGLGTKLEIK

How the values were obtained:
[1] = target: T1, hemagglutinin (HA) of influenza A/Solomon Islands/3/06 H1N1 (Influenza A virus A/Solomon …); experiment: ELISA, inactivated whole virions coated; transfection supernatant set 2
[2] = target: hemagglutinin (HA) of influenza A/Japan/305/57 H2N2 (Influenza A virus A/Japan/305/1957 …, UniProt P03451 16-562); experiment: as above
[3] = target: T1, hemagglutinin (HA) of influenza …; experiment: cell-based or functional assay
[4] = target: hemagglutinin (HA) on live influenza A virus A/Wisconsin/67/05 H3N2 (Influenza A virus A/Wisconsin/67/2005 …); experiment: cell-based or functional assay
[5] = target: hemagglutinin (HA) on live influenza A virus A/Solomon Islands/3/06 H1N1 (Influenza A virus A/Solomon …); experiment: cell-based or functional assay

Binder | OD450 [1] [OD450] | OD450 [2] [OD450] | % Neutralization [3] [%] | % Neutralization [4] [%] | % Neutralization [5] [%]
B1 | 3.69 | 3.63 | 12 | – | –
B2 | – | – | – | 0 | 21
B3 | – | – | – | 99.9 | 81.6
B4 | – | – | – | 0 | 65.7
B5 | – | – | – | 0 | 0
B6 | – | – | – | 97 | –
B7 | – | – | – | 100 | –
B8 | – | – | – | 6 | 99
B9 | 3.48 | 0.61 | 33 | – | –
B10 | – | – | – | 99 | –
B11 | – | – | – | 98 | 3
B12 | – | – | – | 99 | 88
B13 | – | – | – | 5 | 44
B14 | – | – | – | 14 | 0
B15 | – | – | – | 73 | 98
B16 | 3.66 | 3.64 | 0 | – | –
B17 | – | – | – | 100 | –
B18 | – | – | – | 5 | 49
B19 | – | – | – | 7 | 84
